Patent publication US20250361326A1 (Hoffmann-La Roche, published 2025)

Assays:
VEGF [1] = molecular target: T1, VEGF (UniProt P15692-9 27-147); assay: bridging ELISA of exchange reaction mix, 1.3 µM input; VEGF coated, biocytinamid-Cy5 detection; highest value = 100%; binder has neither arm
T1 construct: also called VEGF121
T1 sequence (looked up): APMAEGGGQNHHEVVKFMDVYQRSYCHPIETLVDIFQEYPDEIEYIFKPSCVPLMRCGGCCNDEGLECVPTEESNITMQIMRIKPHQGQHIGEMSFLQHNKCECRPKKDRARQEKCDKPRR

VEGF [2] = molecular target: T1, VEGF; assay: bridging ELISA, VEGF coated, digoxygenin-Cy5 detection; binder has dig arm, no VEGF arm
VEGF [3] = molecular target: T1, VEGF; assay: bridging ELISA of exchange reaction mix, 1.3 µM input; VEGF coated, digoxygenin-Cy5 detection; highest value = 100%; binder has dig arm, no VEGF arm

- relative signal intensity (VEGF [1]): 9.1%
- relative signal intensity (VEGF [3]): 6.7%
B1: anti-dig/anti-fluos bispecific antibody (exchange reaction: dig MHCFcRP-knob-E357K row x fluos MHCFcRP-hole-K370E column) (bispecific antibody, human IgG1, not shown: small tags and cut ends)
heavy 1: QVQLVESGGGLVKPGGSLRLSCAASGFTFSDYAMSWIRQAPGKGLEWVSSINIGATYIYYADSVKGRFTISRDNAKNSLYLQMNSLRAEDTAVYYCARPGSPYEYDKAYYSMAYWGQGTTVTVSSASTKGPSVFPLAPSSKSTSGGTAALGCLVKDYFPEPVTVSWNSGALTSGVHTFPAVLQSSGLYSLSSVVTVPSSSLGTQTYICNVNHKPSNTKVDKKVEPKSC
light 1: not shown
heavy 2: not shown
light 2: DIVMTQTPLSLSVTPGQPASISCKSSQSLVHSNGNTYLRWYLQKPGQSPKVLIYKVSNRVSGVPDRFSGSGSGTDFTLKISRVEAEDVGVYYCSQSTHVPWTFGQGTKLEIKRTVAAPSVFIFPPSDEQLKSGTASVVCLLNNFYPREAKVQWKVDNALQSGNSQESVTEQDSKDSTYSLSSTLTLSKADYEKHKVYACEVTHQGLSSPVTKSFNRGEC
notes: Product of the 2/3-IgG exchange reaction, tested as reaction mix; human IgG1 knob-into-hole format; also called dig/fluos bsAb
- binding result (VEGF [2]): no binding (tested: 1.3 µM input molecule concentration)
